From publication PMC13544220, “Glycemic and bodyweight effects of GIPR coding variation reflect differences in surface expression and intrinsic functional impairment” (Science Advances, 2026)

Tests used:
[1] = test system: wild-type and variant SNAP-GIPR; test: cAMP concentration response (HTRF) in AD293 cells, SNAP-GIPR; type: cell-based, human
Protocol: (Imperial College London): 24 hours before the experiment, AD293 cells were reverse transfected with the GIPR variant or wild-type plasmids using Lipofectamine 2000 in 12-well plates. All variants were tested in parallel on each occasion to control for transfection efficiency differences between experiments. […] Data were fit using a three-parameter logistic model using GraphPad Prism 10.

[2] = test system: wild-type and variant SNAP-GIPR in Gipr-/- mouse islets; test: Insulin secretion from Gipr-/- mouse islets transduced with GIPR adenoviruses; type: cell-based; details: for GIP-induced insulin secretion: Gipr-/- islets, 11 mM glucose, 100 nM GIP; for Insulin secretion, ratio G11 + GIP / G11: Fig 6D, Gipr-/- mouse islets
Protocol: (§1) Isolated islets used for insulin secretion assays were treated in 1.5-ml microcentrifuge tubes. Eight-ten islets were used per well with two-three technical replicates per condition. […] At the end of the treatment, supernatants containing the secreted insulin or glucagon were collected, centrifuged at 1000g for 5 min, and transferred to fresh tubes. […] The lysates were sonicated 3× for 10 s in a water bath and centrifuged at 10,000g for 10 min, and the supernatants were collected. The samples were stored at −20°C until the insulin or glucagon concentrations were determined using an Insulin Ultra-Sensitive HTRF Assay kit (62IN2PEG, Revvity) or an HTRF Glucagon Detection Kit (62CGLPEG, Revvity) respectively, according to the manufacturer’s instructions. GraphPad Prism 9.0 was used for the generation of the standard curve and sample concentration extrapolation. The total insulin or glucagon content was calculated by adding the secreted insulin to the insulin content of the lysates, and secretion was reported as the percentage release of total. The percent secretion of islets treated with agonist was normalized to that of islets treated with vehicle and reported as a fold change.

[3] = test system: wild-type and variant SNAP-GIPR in Gipr-/- mouse islets; test: Glucagon secretion from Gipr-/- mouse islets transduced with GIPR adenoviruses; type: cell-based; details: for Glucagon secretion, ratio G0.5 + GIP / G0.5: Fig S6C, Gipr-/- mouse islets
Protocol: as §1

[4] = test system: wild-type and variant SNAP-GIPR in wild-type mouse islets; test: Insulin secretion from wild-type mouse islets transduced with GIPR adenoviruses; type: cell-based; details: for Insulin secretion, ratio G11 + GIP / G11: Fig 6F
Protocol: as §1, with “The samples were stored at −20°C until the insulin or glucagon concentrations were determined using an Insulin Ultra-Sensitive HTRF Assay kit (62IN2PEG, Revvity) or an HTRF Glucagon Detection Kit (62CGLPEG, Revvity) respectively, according to the manufacturer’s instructions.” left out

[5] = test system: wild-type and variant SNAP-GIPR; test: Surface SNAP-GIPR expression (SNAP-tag labelling) in AD293 cells; type: cell-based, human; details: for AD293 Surface: Fig S3E, mean; for Surface SNAP-GIPR expression: sheet Fig 1C;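 as to all read-outs here: scaled to the experimental average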
Procedure, shortened: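 Surface GIPR is quantified from wide-field images after labelling intact transfected cells with a membrane-impermeant SNAP probe at 500 nM for 10 min at room temperature. Specific signal, corrected for nontransfected cells, is normalized to the experiment-wide average or to wild-type.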

[6] = test system: wild-type and variant SNAP-GIPR; test: Single-concentration GIP cAMP response by HTRF in INS-1 cells; type: cell-based, human; details: Fig S3E, mean
Protocol: All variants were tested in parallel on each occasion to control for transfection efficiency differences between experiments.

CC[C@H](C)[C@H](NC(=O)[C@H](CO)NC(=O)[C@H](Cc1ccc(O)cc1)NC(=O)[C@H](CC(=O)O)NC(=O)[C@H](CO)NC(=O)[C@@H](NC(=O)[C@H](Cc1ccccc1)NC(=O)[C@@H](NC(=O)CNC(=O)[C@H](CCC(=O)O)NC(=O)[C@H](C)NC(=O)[C@@H](N)Cc1ccc(O)cc1)[C@@H](C)O)[C@@H](C)CC)C(=O)N[C@@H](C)C(=O)N[C@@H](CCSC)C(=O)N[C@@H](CC(=O)O)C(=O)N[C@@H](CCCCN)C(=O)N[C@H](C(=O)N[C@@H](Cc1c[nH]cn1)C(=O)N[C@@H](CCC(N)=O)C(=O)N[C@@H](CCC(N)=O)C(=O)N[C@@H](CC(=O)O)C(=O)N[C@@H](Cc1ccccc1)C(=O)N[C@H](C(=O)N[C@@H](CC(N)=O)C(=O)N[C@@H](Cc1c[nH]c2ccccc12)C(=O)N[C@@H](CC(C)C)C(=O)N[C@@H](CC(C)C)C(=O)N[C@@H](C)C(=O)N[C@@H](CCC(N)=O)C(=O)N[C@@H](CCCCN)C(=O)NCC(=O)N[C@@H](CCCCN)C(=O)N[C@@H](CCCCN)C(=O)N[C@@H](CC(N)=O)C(=O)N[C@@H](CC(=O)O)C(=O)N[C@@H](Cc1c[nH]c2ccccc12)C(=O)N[C@@H](CCCCN)C(=O)N[C@@H](Cc1c[nH]cn1)C(=O)N[C@@H](CC(N)=O)C(=O)N[C@H](C(=O)N[C@H](C(=O)N[C@@H](CCC(N)=O)C(=O)O)[C@@H](C)O)[C@@H](C)CC)C(C)C)[C@@H](C)CC [GIP, glucose-dependent insulinotropic polypeptide, reference compound]
cAMP signaling (∆LogEmax/EC50) ([1]; AD293, SNAP-GIPR E288G, R190Q, R101H, 0.1% BSA): markedly reduced responses
cAMP agonism ([1]; AD293, SNAP-GIPR R101H and R190Q): very weak agonists
cAMP signaling (∆LogEmax/EC50) ([1]; AD293, SNAP-GIPR S64A, R136W, R217L, vs wild-type): moderately reduced
GIP-induced insulin secretion ([2]; 30 min, E354Q vs wild-type): blunted insulinotropic response
GIP-induced insulin secretion ([2]; R101H and E288G, not significant): apparent reduced GIP-induced insulin secretion
GIP-induced insulin secretion ([2]; R190Q, statistically significant): reduced GIP-induced insulin secretion
glucagon release ([3]; Gipr-/- islets, 0.5 mM glucose, each variant vs wild type): apparent but nonstatistically significant reduction in glucagon release
GIP-induced insulin secretion ([4]; 11 mM glucose, particularly E354Q and R190Q, not significant): tendency toward reduced responses to GIP stimulation

B1: E288G (protein)
chain: RAETGSKGQTAGELYQRWERYRRECQETLAAAEPPSGLACNGSFDMYVCWDYAAPNATARASCPWYLPWHHHVAAGFVLRQCGSDGQWGLWRDHTQCENPEKNEAFLDQRLILERLQVMYTVGYSLSLATLLLALLILSLFRRLHCTRNYIHINLFTSFMLRAAAILSRDRLLPRPGPYLGDQALALWNQALAACRTAQIVTQYCVGANYTWLLVEGVYLHSLLVLVGGSEEGHFRYYLLLGWGAPALFVIPWVIVRYLYENTQCWGRNEVKAIWWIIRTPILMTILINFLIFIRILGILLSKLRTRQMRCRDYRLRLARSTLTLVPLLGVHEVVFAPVTEEQARGALRFAKLGFEIFLSSFQGFLVSVLYCFINKEVQSEIRRGWHHCRLRRSLGEEQRQLPERAFRALPSGSGPGEVPTSRGLSSGTLPGPGNEASRELESYC
Insulin secretion, ratio G11 + GIP / G11 ([2]; replicate 1): 2.545
Insulin secretion, ratio G11 + GIP / G11 ([2]; replicate 2): 0.8478
Insulin secretion, ratio G11 + GIP / G11 ([2]; replicate 3): 2.186
Insulin secretion, ratio G11 + GIP / G11 ([2]; replicate 4): 1.083
AD293 Surface ([5]; column repeated, paired with cAMP 100 nM): 0.1748
AD293 Surface ([5]; paired with cAMP 100 pM): 0.1748
Surface SNAP-GIPR expression ([5]; replicate 1): 0.1869
Surface SNAP-GIPR expression ([5]; replicate 2): 0.267
Surface SNAP-GIPR expression ([5]; replicate 3): 0.08361
Surface SNAP-GIPR expression ([5]; replicate 4): 0.1519
Surface SNAP-GIPR expression ([5]; replicate 5): 0.1987
Surface SNAP-GIPR expression ([5]; replicate 6): 0.07439
Surface SNAP-GIPR expression ([5]; replicate 7): 0.7465
Surface SNAP-GIPR expression ([5]; replicate 8): 0.3261
Surface SNAP-GIPR expression ([5]; replicate 9): 0.1689
Surface SNAP-GIPR expression ([5]; replicate 10): 0.2273
Surface SNAP-GIPR expression ([5]; replicate 11): 0.2845
Surface SNAP-GIPR expression ([5]; replicate 12): 0.2606
Surface SNAP-GIPR expression ([5]; replicate 13): 0.07673
Surface SNAP-GIPR expression ([5]; replicate 14): 0.0817
Surface SNAP-GIPR expression ([5]; replicate 15): 0.1221
Surface SNAP-GIPR expression ([5]; replicate 16): 0.1487
Surface SNAP-GIPR expression ([5]; replicate 17): 0.2042
Surface SNAP-GIPR expression ([5]; replicate 18): 0.1937
Surface SNAP-GIPR expression ([5]; replicate 19): 0.1495
Surface SNAP-GIPR expression ([5]; replicate 20): 0.1825
Surface SNAP-GIPR expression ([5]; replicate 21): 0.2069
Surface SNAP-GIPR expression ([5]; replicate 22): 0.1788
Surface SNAP-GIPR expression ([5]; replicate 23): 0.167
Surface SNAP-GIPR expression ([5]; replicate 24): 0.1096
Surface SNAP-GIPR expression ([5]; replicate 25): 0.2053
Surface SNAP-GIPR expression ([5]; replicate 26): 0.1578
Surface SNAP-GIPR expression ([5]; replicate 27): 0.0991
Surface SNAP-GIPR expression ([5]; replicate 28): 0.1213
Surface SNAP-GIPR expression ([5]; replicate 29): 0.1325
Surface SNAP-GIPR expression ([5]; replicate 30): 0.1696
Surface SNAP-GIPR expression ([5]; replicate 31): 0.159
Surface SNAP-GIPR expression ([5]; replicate 32): 0.181
Surface SNAP-GIPR expression ([5]; replicate 33): 0.1299
Surface SNAP-GIPR expression ([5]; replicate 34): 0.1533
Surface SNAP-GIPR expression ([5]; replicate 35): 0.1527
Surface SNAP-GIPR expression ([5]; replicate 36): 0.05767
Surface SNAP-GIPR expression ([5]; replicate 37): 0.09894
Surface SNAP-GIPR expression ([5]; replicate 38): 0.1179
Surface SNAP-GIPR expression ([5]; replicate 39): 0.124
Surface SNAP-GIPR expression ([5]; replicate 40): 0.1489
Surface SNAP-GIPR expression ([5]; replicate 41): 0.1584
Glucagon secretion, ratio G0.5 + GIP / G0.5 ([3]; replicate 1): 2.014
Glucagon secretion, ratio G0.5 + GIP / G0.5 ([3]; replicate 2): 1.482
Glucagon secretion, ratio G0.5 + GIP / G0.5 ([3]; replicate 3): 1.8204
Glucagon secretion, ratio G0.5 + GIP / G0.5 ([3]; replicate 4): 1.525
Insulin secretion, ratio G11 + GIP / G11 ([4]; replicate 1): 0.8131
Insulin secretion, ratio G11 + GIP / G11 ([4]; replicate 2): 1.885
Insulin secretion, ratio G11 + GIP / G11 ([4]; replicate 3): 1.6101
Insulin secretion, ratio G11 + GIP / G11 ([4]; replicate 4): 1.127
Insulin secretion, ratio G11 + GIP / G11 ([4]; replicate 5): 2.303
INS-1 cAMP (100 nM) [6]: 0.3027
